# Laboratory results taken from US20210380703A1.
# Numbering of substitutions follows the chain as printed.
# B1: 369_F06 (antibody, V domains shown)
# VH: EVQLLESGGGLVQPGGSLRLSCAASGFTFDDYSMNWVRQAPGKGLEWVAGINYNGGYKGYADSVKGRFTISRDNSKNTLYLQMNSLRAEDTAVYYCARSANWHDTALDYWGQGTLVTVSS
# VL: DIQMTQSPSSLSASVGDRVTITCRASQSIVSYVNWYQQKPGKAPKLVIYAATSRASGVPSRFSGSGSGTDFTLTISSLQPEDFATYYCQQSYDSPLTFGGGTKVEIK
# B2: 371_A06 (antibody, V domains shown)
# VH: B1 VH with D30S, D31S, S33G, K58T, G59S
# VL: B1 VL with V30L, S31T, V33L, A55H
# B3: 370_E09 (antibody, V domains shown)
# VH: B1 VH with Y32S, N35H, A49S, G50N, K58T, R98K
# VL: B1 VL with V30L, D93E, S94L
# B4: 370_D04 (antibody, V domains shown)
# VH: B1 VH with D31S, G50N, G55S
# VL: B1 VL with V30L, S31T, V33L, S94N
# B5: 370_A12 (antibody, V domains shown)
# VH: B1 VH with D30S, D31S, S33G, K58T, G59S
# VL: B1 VL with V30L, S31T, V33L, V47L, R54L
# B6: 371_F01 (antibody, V domains shown)
# VH: B1 VH with D30S, D31S, K58T
# VL: B1 VL with V30L, S31T, R54L, D93N, S94N
# B7: 370_C08 (antibody, V domains shown)
# VH: B1 VH with D30S, D31S, S33G
# VL: B1 VL with V30S, S31N, V33L, V47L, A51V
# B8: 370_H09 (antibody, V domains shown)
# VH: B1 VH with D30S, D31S, S33G, G50N, K58T, G59S
# VL: B1 VL with V47L, S94N
# B9: 369_F10 (antibody, V domains shown)
# VH: B1 VH with D31S, S33G, A49S, G50N, G55S, G59S
# VL: B1 VL with S31T, V33L, V47L, A51V, S94L
# B10: 370_E06 (antibody, V domains shown)
# VH: B1 VH with D30S, D31S, S33G, A49S, G55S, G59S
# VL: B1 VL with V30L, V33L, A51T, R54L, S94T
# B11: 371_F08 (antibody, V domains shown)
# VH: B1 VH with A49S, K58T
# VL: B1 VL with A55H, D93E
# B12: 371_B07 (antibody, V domains shown)
# VH: B1 VH with D31S, K58T, G59S
# VL: B1 VL with V30L, S31T, V47L, D93E, S94L
# B13: 370_E03 (antibody, V domains shown)
# VH: B1 VH with D30S, D31S, S33G, A49S, G50S
# VL: B1 VL with V30L, S31T, V33L, A50Y, T52S, S53N
# B14: 371_G10 (antibody, V domains shown)
# VH: B1 VH with D30S, D31S, A49S, G59S
# VL: B1 VL with V30S, V47L, A55H, Y92D
# B15: 371_D09 (antibody, V domains shown)
# VH: B1 VH with D30S, D31S, A49S, G50N, G55S, K58T
# VL: B1 VL with V30L, S31T, V33L, D93N, S94N
# B16: 369_H05 (antibody, V domains shown)
# VH: B1 VH with D30S, D31S, S33G, G50N, K58T
# VL: B1 VL with V47L, D93S, S94N
# B17: 371_A12 (antibody, V domains shown)
# VH: B1 VH with D31S, G55S, K58T, G59S
# VL: B1 VL with V30L, R54L, S94T
# B18: 370_H01 (antibody, V domains shown)
# VH: B1 VH with D30S, D31S, A49S, G55S
# VL: B1 VL with V30I, V33L, V47L, A51V, S94T
# B19: 370_A01 (antibody, V domains shown)
# VH: B1 VH with D30S, D31S, A49S, G55S, G59S
# VL: B1 VL with V30S, S31T, V33L, D93N, S94L
# B20: 369_G11 (antibody, V domains shown)
# VH: B1 VH with D30S, D31S, G50N, G55S
# VL: B1 VL with V30L, S31T, V33L, V47L, R54L, D93E
# B21: 372_A04 (antibody, V domains shown)
# VH: B1 VH with D31S, A49S, G55S, K58T, G59S
# VL: B1 VL with V30L, S31T, V33L, D93E, S94T
# B22: 370_G11 (antibody, V domains shown)
# VH: B1 VH with D30S, D31S, G50S, G55S, K58T, G59S, A106H
# VL: B1 VL with V33L, D93S, S94L
# B23: 369_H09 (antibody, V domains shown)
# VH: B1 VH with A49S, K58T, G59S
# VL: B1 VL with V30L, V47L, A51V, R54L, D93E
# B24: 371_A07 (antibody, V domains shown)
# VH: B1 VH with D30S, A49S, G50N, G59S
# VL: B1 VL with V30L, V33L, A51T, S94L
# B25: 369_G04 (antibody, V domains shown)
# VH: B1 VH with D31S, A49S, K58T, G59S
# VL: B1 VL with V30L, S31T, V47L, A51T, A55H, D93E, S94T
# B26: 371_A03 (antibody, V domains shown)
# VH: B1 VH with D30S, S33G, G50N, K58T
# VL: B1 VL with V30L, V33L, A51T, D93E
# B27: 370_G02 (antibody, V domains shown)
# VH: B1 VH with D30S, G50N
# VL: B1 VL with V33L, V47L, A55H
# B28: 369_F11 (antibody, V domains shown)
# VH: B1 VH with D31S, S33G, A49S, G50N, G55S, G59S
# VL: B1 VL with V30I, V33L, V47L, S94L
# B29: 369_G12 (antibody, V domains shown)
# VH: B1 VH with D30S, D31S, G50N, K58T
# VL: B1 VL with V30L, S31T, A55H, Y92D, D93N, S94T
# B30: 369_G06 (antibody, V domains shown)
# VH: B1 VH with D31S, S33G, K58T, G59S
# VL: B1 VL with V30L, D93E, S94N
# B31: 370_F07 (antibody, V domains shown)
# VH: B1 VH with D31S, A49S, G50N
# VL: B1 VL with V30L, V33L, V47L, D93N, S94L
# B32: 370_G03 (antibody, V domains shown)
# VH: B1 VH with D30S, D31S, G50N, K58T
# VL: B1 VL with V30L, S31T, A51T, D93N, S94N
# B33: 370_G09 (antibody, V domains shown)
# VH: B1 VH with D30S, D31S, S33G, G59S
# VL: B1 VL with V30L, D93E
# B34: 370_F05 (antibody, V domains shown)
# VH: B1 VH with D30S, D31S, S33G, A49S, G55S, K58T, G59S
# VL: B1 VL with D93E, S94T
# B35: 371_B06 (antibody, V domains shown)
# VH: B1 VH with D31S, G59S
# VL: B1 VL with V30L, S31T, A55H, D93N, S94L
# B36: 370_C01 (antibody, V domains shown)
# VH: B1 VH with D31S, A49S, G55S, K58T
# VL: B1 VL with V30L, S31T, V33L, R54L, S94T
# B37: 371_F06 (antibody, V domains shown)
# VH: B1 VH with D31S, G50N, K58T, G59S
# VL: B1 VL with V33L, A55H, D93N
# B38: 370_A03 (antibody, V domains shown)
# VH: B1 VH with D30S, D31S, A49S, G50N, K58T, G59S
# VL: B1 VL with V30L, V33L, V47L
# B39: 371_H09 (antibody, V domains shown)
# VH: B1 VH with D31S, A49S, G50N, K58T, G59S
# VL: B1 VL with V30L, S31T, R54L
# B40: 370_G10 (antibody, V domains shown)
# VH: B1 VH with D30S, S33G, A49S, G55S, K58T, G59S
# VL: B1 VL with V30S, V33L, V47L, A50V, A51V, T52N, S53N, D93E, S94N
# B41: 370_D11 (antibody, V domains shown)
# VH: B1 VH with D31S, A49S, K58T
# VL: B1 VL with V33L, V47L, S94T
# B42: 370_C05 (antibody, V domains shown)
# VH: B1 VH with D30S, D31S, G55S, K58T
# VL: B1 VL with V30L, D93N
# B43: 371_F04 (antibody, V domains shown)
# VH: B1 VH with D31S, G55S
# VL: B1 VL with V30L, V33L, V47L, A55H, D93N, S94N
# B44: 370_G06 (antibody, V domains shown)
# VH: B1 VH with D30S, S33G, N35H, A49S, G50S, K58T, G59S
# VL: B1 VL with V30L, Y92D, D93N, S94T
# B45: 369_H06 (antibody, V domains shown)
# VH: B1 VH with D30S, D31S, S33G, G50N, G59S
# VL: B1 VL with V47L, S94T
# B46: 370_A04 (antibody, V domains shown)
# VH: B1 VH with D31S, A49S, K58T, G59S
# VL: B1 VL with V30I, S31T, V33L, V47L, S94N
# B47: 370_F10 (antibody, V domains shown)
# VH: B1 VH with D30S, D31S, K58T, G59S
# VL: B1 VL with V33L, D93N
# B48: 371_A08 (antibody, V domains shown)
# VH: B1 VH with D30S, D31S, S33G, N35H, A49S, G50S, K58T, G59S
# VL: B1 VL with V30L, V33L, D93E, S94L
# Target: Human Fc (human)
# Test: ELISA, negative control
row,optical density,Binder
1,0.353 OD,B1
2,0.337 OD,B2
3,0.338 OD,B3
4,0.371 OD,B4
5,0.674 OD,B5
6,0.41 OD,B6
7,0.381 OD,B7
8,0.348 OD,B8
9,0.361 OD,B9
10,0.375 OD,B10
11,0.301 OD,B11
12,0.308 OD,B12
13,0.361 OD,B13
14,0.439 OD,B14
15,0.268 OD,B15
16,0.457 OD,B16
17,0.483 OD,B17
18,0.436 OD,B18
19,0.637 OD,B19
20,0.331 OD,B20
21,0.339 OD,B21
22,0.529 OD,B22
23,0.365 OD,B23
24,0.336 OD,B24

row,optical density,Binder
1,0.385 OD,B25
2,0.354 OD,B26
3,0.388 OD,B27
4,0.37 OD,B28
5,0.353 OD,B29
6,0.474 OD,B30
7,0.384 OD,B31
8,0.421 OD,B32
9,0.393 OD,B33
10,0.406 OD,B34
11,0.356 OD,B35
12,0.403 OD,B36
13,0.289 OD,B37
14,0.424 OD,B38
15,0.32 OD,B39
16,0.315 OD,B40
17,0.34 OD,B41
18,0.346 OD,B42
19,0.345 OD,B43
20,0.356 OD,B44
21,0.347 OD,B45
22,0.377 OD,B46
23,0.441 OD,B47
24,0.304 OD,B48
